Results reported in article PMC5050560.

What was measured:
[1] = biological target: cdPadR1^W94A (Clostridium difficile R20291); assay: SEC-MALS
[2] = biological target: cdPadR1 (PadR family transcription regulator, product of CDR20291_0991, Clostridium difficile R20291) (Clostridium difficile R20291); assay: SEC-MALS
[3] = biological target: cdPadR1 (PadR family transcription regulator, product of CDR20291_0991, Clostridium difficile R20291) (Clostridium difficile R20291); assay: SEC

Substance	stoichiometry N [1]	stoichiometry N [2]	stoichiometry N [3]
cdPadR1^W94A (from UniProt A0A9R0CDW8 1-109) (natural protein)	2	–	–
cdPadR1 (PadR family transcription regulator, product of CDR20291_0991, Clostridium difficile R20291) (from UniProt A0A9R0CDW8 1-109) (natural protein)	–	2	2
